# Source: patent US20210070875A1
# Assays:
# Test in all cases: ELISA, polypeptide coated at 1.0 µg/mL
# [1] = molecular target: C5aR extracellular N-terminus polypeptide (UniProt P21730)
# [2] = molecular target: C5aR polypeptide-03 (UniProt P21730)
# [3] = molecular target: C5aR polypeptide-04 (UniProt P21730)
# [4] = molecular target: C5aR polypeptide-05 (UniProt P21730)
Binder,OD450 nm [1] [OD450 nm],OD450 nm [2] [OD450 nm],OD450 nm [3] [OD450 nm],OD450 nm [4] [OD450 nm]
"5F8E2C11 (antibody, V domains shown) VH: QVQLRQSGPGLVQPSQSLSITCTVSGFSLTSYGVHWVRQSPGKGLEWLGVIWSGGSTDYNAAFISRLSISKDYSKSQIFLTMNSLQTDDTAIYYCARNSRLGNCFDYWGQGTTLTVSS VL: DIVMSQSPSSLAVSAGEKVTMSCKSSQSLLNSRTRKNYLAWYQQKPGQSPKLLIYWASTRESGVPDRFTGSGSGTDFTLTISSVQAEDLAVYYCKQSYNLPAFGGGTKLEIK",0.22,0.31,2.52,0.56
"43E8F5B6 (antibody, V domains shown) VH: EVQLQQSGPELVKPGASVKISCKASGYTFTDYYMSWMKQSHGKSLEWIGDINPNNGDNIYNQKFKGKATLTVDRSSSTAYMDLRSLTSEDSAVYYCARWYYYVSSFSYWYFDVWGTGTTVTVSS VL: EIVLTQSPTTMAASPGEKITITCSATSSINSNYLHWYQQKPGFSPKLLIYRTSNLASGVPARFSGSGSGTSYSLTIGTMEAEDVATYYCQQGRTIPRTFGSGTKLEIK",0.12,0.08,0.1,0.06
"2A12B2B2 (antibody, V domains shown) VH: QVQLQQPGADLVKPGASVKMSCKASGYILTTYWITWVKQRPGQGLEWIGDIHPGSGSTKYNEKFKSKATLTVDTSSSTAYMQLTRLSSEDSAVYYCARRDYWGQGTTLTVSS VL: DIQMTQTTSSLSASLGDKVTISCRASQDISNYLSWYQQKPDGTVKLLIYWISRLHSGVPSRFSGSGSGTDFSLTISNLEQEDIATYFCQQGNSLPPTFGGGTKLEVK",0.05,0.06,2.34,0.29
"8B5D1A9 (antibody, V domains shown) VH: QVQLKQSGAELVKPGASVKISCKTSGYIFTDYYINWMKQRPGQGLEWIGKIGPGSGTTFYNEKFKGKATLTADKSSTTLYMQLSSLTAEDSAVYFCTRRGYYSSSYFYWGQGTTLTVSS VL: DIVMTQSPSSLSVSAGEKVIMSCKSSQSLLNSERQKNYLAWYQQKPGQSPKLLIYGASTRESGVPDRFTGSGSGTDFTLTISSVQAEDLAVYYCLNDHSYPLTFGAGTKLELK",2.5,0.05,0.1,0.08
"9D5A12G7 (antibody, V domains shown) VH: QVQLKQSGPGLVQPSQSLSITCTVSGFSLTSYGVHWVRQSPGKGLEWLGVIWSGGSTDYNAAFISRLSISKDNSKSQVFFKMNSLQADDTAIYYCARNGLLGNAMDYWGQGTSVTVSS VL: DIVMSQSPSSLAVSAGEKVTMSCKSSQSLLSSRTRKNYLAWYQQKPGQSPKLLIYWASTRESGVPDRFTGSGSGTDFTLTISSVQTEDLAVYYCKQSYNLLTFGAGTTLELK",0.06,0.06,2.46,0.41
